From publication PMC5658516 (Cell Chemical Biology, 2017) come the findings set out here.

The target of this test is T1, His10-Ub-Ub WT (UniProt P0CG48 1-76; P0CG48 1-76).
T1 construct: ubiquitin, distal moiety; ubiquitin, proximal moiety; two ubiquitins head to tail on one chain; also called linear diUb; M1-linked diUb; source: E. coli BL21-CodonPlus (DE3)-RIPL, purified (HisTrap, desalting); not shown: His10, N-terminal, kept
The test is described as follows: pull-down; 20 μg OTULINcat-ST with equimolar His10-diUb in PBS, 0.1% BSA, 5% glycerol, 0.1% Triton-X, 2 h 4 °C; OTULINcat-ST held on Strep-Tactin Sepharose, eight washes with 0.5% Triton-X; western blot. Conditions: both partners purified. Background: A western blot detects proteins with antibodies after separation by electrophoresis.

B1: OTULINcat-Strep-tag II C129A (domain or fragment, UniProt Q96BN8 80-352, looked up)
chain: LSVAPEMDIMDYCKKEWRGNTQKATCMKMGYEEVSQKFTSIRRVRGDNYAALRATLFQAMSQAVGLPPWLQDPELMLLPEKLISKYNWIKQWKLGLKFDGKNEDLVDKIKESLTLLRKKWAGLAEMRTAEARQIACDELFTNEAEEYSLYEAVKFLMLNRAIELYNDKEKGKEVPFFSVLLFARDTSNDPGQLLRNHLNQVGHTGGLEQVEMFLLAYAVRHTIQVYRLSKYNTEEFITVYPTDPPKDWPVVTLIAEDDRHYNIPVRVCEETSL
notes: also called OTULINcat C129A; OTULIN C129A; source: E. coli BL21-CodonPlus (DE3)-RIPL, purified (StrepTrap, desalting); not shown: Strep-tag II, C-terminal, kept
Take B1: the binding result is given as “binds”.
